± gives the uncertainty stated by the source.
Experiment: self-splicing fitness, log relative to wild type (ln ratio); higher = more splicing; Tetrahymena group I intron in knt gene, E. coli kanamycin selection, DiMSum; sequences stand for … in CUCUCU…GGAGGGAAAAGUUAUCAGGCAUGCACCUGGUAGCUAGUCUUUAAACCAAUAGAUUGCAUCGGUUUAAAAGGCAAGACCGUCAAAUUGCGGGAAAGGGGUCAACAGCCGUUCAGUACCAAGUCUCAGGGGAAACUUUGAGAUGGCCUUGCAAAGGGUAUGGUAAUAAGCUGACGGACAUGGUCCUAACCACGCAGCCAAGUCCUAAGUCAACAGAUCUUCUGUUGAUAUGGAUGCAGUUCACAGACUAAAUGUCGGUCGGGGAAGAUGUAUUCUUCUCAUAAGAUAUAGUCGGACCUCUCCUUAAUGGGAGCUAGCGGAUGAAGUGAUGCAACACUGGAGCCGCUGGGAACUAAUUUGUAUGCGAAAGUAUAUUGAUUAGUUUUGGAGUACUCGUGGUCG
Method in brief: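 Six replicate transformations of E. coli BL21(DE3) with a pET-22b(+) library were grown overnight at 37°C or 30°C. The library randomised all eight P1ex-region intron nucleotides, the intron lying in the knt kanamycin-resistance gene, and plates were LB agar with or without 25 μg/mL kanamycin plus 100 μg/mL carbenicillin, 50 μM IPTG and 0.2% rhamnose. Pooled colonies were amplicon-sequenced on an Illumina HiSeq 2500, and fitness is the DiMSum error-weighted combination of wild-type-normalised replicate fold changes, kanamycin versus none.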

Sequence	self-splicing fitness (ln) (30 °C)	self-splicing fitness (ln) (37 °C)
CACUAGCAAUAUUACGUUAU	-3.42 ± 0.22	-3.52 ± 0.23
AGUAAGCAAUAUUACGUACG	-1.51 ± 0.11	0.135 ± 0.14
AUGGAGCAAUAUUACGCCUU	-2.22 ± 0.18	-2.41 ± 0.3
GCUAAGCAAUAUUACGAUCG	-1.1 ± 0.1	-0.997 ± 0.12
CCAGAGCAAUAUUACGCAGG	-3.56 ± 0.15	-2.53 ± 0.17
CCCUAGCAAUAUUACGUUAA	-3.42 ± 0.18	-3.16 ± 0.29
GAUGAGCAAUAUUACGUGGC	-3.24 ± 0.22	-2.59 ± 0.26
CGCGAGCAAUAUUACGACCA	-1.71 ± 0.26	-2.4 ± 0.29
AGACAGCAAUAUUACGGUAG	-3.97 ± 0.22	-0.604 ± 0.092
GUACAGCAAUAUUACGCAAG	-2.59 ± 0.16	-2.08 ± 0.17
GCGCAGCAAUAUUACGCUAA	-1.42 ± 0.085	-1.06 ± 0.11
CGGAAGCAAUAUUACGUUGC	-3.59 ± 0.26	-2.69 ± 0.48
AUCGAGCAAUAUUACGAGCG	-2.35 ± 0.33	-1.81 ± 0.27
ACAUAGCAAUAUUACGACGG	-1 ± 0.091	-0.32 ± 0.12
CGUUAGCAAUAUUACGCAAU		-1.02 ± 0.23
GCGUAGCAAUAUUACGGAUA	-1.67 ± 0.13	-0.826 ± 0.13
CCGAAGCAAUAUUACGGCUA	-2.89 ± 0.29	-1.64 ± 0.24
UAGCAGCAAUAUUACGGCCG	-0.163 ± 0.071	0.0112 ± 0.085
AUGCAGCAAUAUUACGAGGC	-1.94 ± 0.23	-2.34 ± 0.33

Sequence	self-splicing fitness (ln) (30 °C)	self-splicing fitness (ln) (37 °C)
AGGCAGCAAUAUUACGCUCU	-2.31 ± 0.34	
AUUCAGCAAUAUUACGGCAU	-0.321 ± 0.065	1.01 ± 0.1
GCUGAGCAAUAUUACGAUAG	-1.35 ± 0.25	-1.83 ± 0.26
UUGCAGCAAUAUUACGUAAU	-2.83 ± 0.098	-2.24 ± 0.14
UAAGAGCAAUAUUACGGAAU	-3.52 ± 0.41	-2.14 ± 0.41
ACUGAGCAAUAUUACGACAU	-2.109 ± 0.015	-1.12 ± 0.034
GUCUAGCAAUAUUACGGCUG	-2.04 ± 0.18	-1.91 ± 0.21
GGCUAGCAAUAUUACGAAUU	-0.487 ± 0.19	-0.299 ± 0.15
GCAGAGCAAUAUUACGUAUC	-2.59 ± 0.33	-2.08 ± 0.41
GUGCAGCAAUAUUACGGCCG	-1.8 ± 0.26	-1.12 ± 0.3
UCGUAGCAAUAUUACGGAUC	-3.32 ± 0.45	-2.85 ± 0.48
CAUGAGCAAUAUUACGAUUG	-4.17 ± 0.26	-3.15 ± 0.24
UACAAGCAAUAUUACGACCG	-0.233 ± 0.096	0.952 ± 0.13
CUCCAGCAAUAUUACGGUGA	-2 ± 0.099	-1.39 ± 0.11
GCGUAGCAAUAUUACGACUA	0.106 ± 0.14	0.571 ± 0.14
GCUUAGCAAUAUUACGUGAU	-0.4 ± 0.065	-0.482 ± 0.068
GCCGAGCAAUAUUACGCAGC	-3.12 ± 0.29	-2.22 ± 0.27
AUUUAGCAAUAUUACGGAAA	-2.75 ± 0.29	-1.47 ± 0.21
AAAAAGCAAUAUUACGGGGU	-3.62 ± 0.16	-2.32 ± 0.17

From the supplement of paper PMC7877785
